Where a chain is given by its changes, count along the chain named.
Experiments:
[1] = biological target: mesothelin (MSLN) (UniProt Q13421); experiment: 4 C cell binding assay on Panc-1 (MSLN strongly-positive) cells, E4 qPCR
[2] = biological target: T1, AdML-5WT, control adenovirus with the native (wild type) Ad5 fiber (adenovirus type 5, UniProt P11818 1-581); experiment: cell binding assay, 10 vp/cell, 2 h, 4 C, E4 qPCR (FIG. 26)
T1 construct: The whole virion stood in the assays; also called AdML-WT; wild type fiber virus
T1 sequence: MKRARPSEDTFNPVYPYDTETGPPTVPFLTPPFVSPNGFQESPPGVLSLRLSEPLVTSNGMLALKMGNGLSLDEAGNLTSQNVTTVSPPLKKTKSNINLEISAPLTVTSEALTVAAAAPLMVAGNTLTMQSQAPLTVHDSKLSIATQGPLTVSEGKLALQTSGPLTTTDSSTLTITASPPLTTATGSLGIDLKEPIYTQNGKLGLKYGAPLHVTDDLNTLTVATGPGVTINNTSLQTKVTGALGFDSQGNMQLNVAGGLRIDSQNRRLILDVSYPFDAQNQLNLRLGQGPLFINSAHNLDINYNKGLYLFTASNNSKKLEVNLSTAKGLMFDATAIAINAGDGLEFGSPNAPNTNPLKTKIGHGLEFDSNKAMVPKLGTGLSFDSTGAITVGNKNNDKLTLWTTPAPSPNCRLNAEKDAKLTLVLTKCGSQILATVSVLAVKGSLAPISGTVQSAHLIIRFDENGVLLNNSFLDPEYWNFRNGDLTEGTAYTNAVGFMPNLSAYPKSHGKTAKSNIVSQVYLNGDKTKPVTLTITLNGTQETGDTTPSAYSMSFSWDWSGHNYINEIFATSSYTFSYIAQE

[3] = biological target: T2, CD133 (Prominin-1) (UniProt O43490 20-865); experiment: cell-based or functional assay
T2 sequence: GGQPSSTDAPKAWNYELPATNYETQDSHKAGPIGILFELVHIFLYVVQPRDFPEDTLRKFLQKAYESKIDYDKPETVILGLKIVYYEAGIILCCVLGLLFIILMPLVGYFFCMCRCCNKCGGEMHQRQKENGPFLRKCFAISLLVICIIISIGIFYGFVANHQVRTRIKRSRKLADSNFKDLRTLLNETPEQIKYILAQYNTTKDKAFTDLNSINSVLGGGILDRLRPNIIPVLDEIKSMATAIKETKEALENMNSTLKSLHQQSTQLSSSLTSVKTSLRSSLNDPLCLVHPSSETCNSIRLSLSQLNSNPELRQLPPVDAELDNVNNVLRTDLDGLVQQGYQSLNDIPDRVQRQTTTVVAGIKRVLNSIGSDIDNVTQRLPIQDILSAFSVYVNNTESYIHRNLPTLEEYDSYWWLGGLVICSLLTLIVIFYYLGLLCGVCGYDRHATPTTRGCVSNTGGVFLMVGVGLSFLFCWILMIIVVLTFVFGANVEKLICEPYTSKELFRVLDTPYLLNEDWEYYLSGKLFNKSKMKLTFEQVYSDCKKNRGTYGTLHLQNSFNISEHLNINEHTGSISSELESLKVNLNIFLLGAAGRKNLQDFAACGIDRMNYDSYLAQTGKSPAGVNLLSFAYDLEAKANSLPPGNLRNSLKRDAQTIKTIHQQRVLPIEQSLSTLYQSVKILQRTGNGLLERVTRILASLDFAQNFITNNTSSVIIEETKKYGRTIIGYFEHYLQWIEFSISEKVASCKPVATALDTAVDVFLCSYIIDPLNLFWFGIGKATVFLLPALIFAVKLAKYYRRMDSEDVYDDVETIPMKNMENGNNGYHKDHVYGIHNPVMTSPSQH

[4] = biological target: T2, CD133 (Prominin-1); experiment: cell binding assay with and without anti-CD133 antibody (FIG. 17)

“AdML-VTIN, adenovirus with the VTINRSA (SEQ ID NO:12) targeting motif in the AB-loop of the fiber knob (from UniProt P11818 1-410; P11818 418-581)” gave a fold binding against AdMG553 [1] of 2 fold and a fold binding against AdML-5WT [1] of 5 fold.

B1: Coxsackie adenovirus receptor (CAR) (receptor)
chain: LSITTPEEMIEKAKGETAYLPCKFTLSPEDQGPLDIEWLISPADNQKVDQVIILYSGDKIYDDYYPDLKGRVHFTSNDLKSGDASINVTNLQLSDIGTYQCKVKKAPGVANKKIHLVVLVKPSGARCYVDGSEEIGSDFKIKCEPKEGSLPLQYEWQKLSDSQKMPTSWLAEMTSSVISVKNASSEYSGTYSCTVRNRVGSDQCLLRLNVVPPSNKAGLIAGAIIGTLLALALIGLIIFCCRKKRREEKYEKEVHHDIREDVPPPKSRTSTARSYIGSNHSSLGSMSPSNMEGYSKTQYNQVPSEDFERTPQSPTLPPAKVAAPNLSRMGAIPVMIPAQSKDGSIV
notes: whole, on cells; the cell lines are human; also called Ad5 receptor; natural Ad receptor
B1: binds [2].

B2: AdML-TYML, adenovirus with the TYMLSRN (SEQ ID NO:106) targeting motif in the AB-loop of the fiber knob (other)
chain: T1 sequence with C411T, R412Y, L413M, N414L, A415S, E416R, K417N
notes: also called TYML virus; Ad-TYML
In the case of B2, the “viral copy number after infection (E4 qPCR)” value [3] is reported as greater than 5 fold and the “fold binding, CD133(+) against CD133(-) 293 cells” value [4] is reported as 4 fold.

Reference: patent US20170119830A1 (REGENTS OF THE UNIVERSITY OF MINNESOTA, published 2017)
